Laboratory results taken from patent US20060240023A1 (Takeda / Millennium, published 2006).

Target: T1, ASK1-KR (human ASK1 with lysine 709 at the ATP-binding site replaced with arginine) (human, UniProt Q99683 1-1374)
T1 construct: Bait in the yeast two-hybrid screen (Brent's system); also called bait
T1 sequence (looked up): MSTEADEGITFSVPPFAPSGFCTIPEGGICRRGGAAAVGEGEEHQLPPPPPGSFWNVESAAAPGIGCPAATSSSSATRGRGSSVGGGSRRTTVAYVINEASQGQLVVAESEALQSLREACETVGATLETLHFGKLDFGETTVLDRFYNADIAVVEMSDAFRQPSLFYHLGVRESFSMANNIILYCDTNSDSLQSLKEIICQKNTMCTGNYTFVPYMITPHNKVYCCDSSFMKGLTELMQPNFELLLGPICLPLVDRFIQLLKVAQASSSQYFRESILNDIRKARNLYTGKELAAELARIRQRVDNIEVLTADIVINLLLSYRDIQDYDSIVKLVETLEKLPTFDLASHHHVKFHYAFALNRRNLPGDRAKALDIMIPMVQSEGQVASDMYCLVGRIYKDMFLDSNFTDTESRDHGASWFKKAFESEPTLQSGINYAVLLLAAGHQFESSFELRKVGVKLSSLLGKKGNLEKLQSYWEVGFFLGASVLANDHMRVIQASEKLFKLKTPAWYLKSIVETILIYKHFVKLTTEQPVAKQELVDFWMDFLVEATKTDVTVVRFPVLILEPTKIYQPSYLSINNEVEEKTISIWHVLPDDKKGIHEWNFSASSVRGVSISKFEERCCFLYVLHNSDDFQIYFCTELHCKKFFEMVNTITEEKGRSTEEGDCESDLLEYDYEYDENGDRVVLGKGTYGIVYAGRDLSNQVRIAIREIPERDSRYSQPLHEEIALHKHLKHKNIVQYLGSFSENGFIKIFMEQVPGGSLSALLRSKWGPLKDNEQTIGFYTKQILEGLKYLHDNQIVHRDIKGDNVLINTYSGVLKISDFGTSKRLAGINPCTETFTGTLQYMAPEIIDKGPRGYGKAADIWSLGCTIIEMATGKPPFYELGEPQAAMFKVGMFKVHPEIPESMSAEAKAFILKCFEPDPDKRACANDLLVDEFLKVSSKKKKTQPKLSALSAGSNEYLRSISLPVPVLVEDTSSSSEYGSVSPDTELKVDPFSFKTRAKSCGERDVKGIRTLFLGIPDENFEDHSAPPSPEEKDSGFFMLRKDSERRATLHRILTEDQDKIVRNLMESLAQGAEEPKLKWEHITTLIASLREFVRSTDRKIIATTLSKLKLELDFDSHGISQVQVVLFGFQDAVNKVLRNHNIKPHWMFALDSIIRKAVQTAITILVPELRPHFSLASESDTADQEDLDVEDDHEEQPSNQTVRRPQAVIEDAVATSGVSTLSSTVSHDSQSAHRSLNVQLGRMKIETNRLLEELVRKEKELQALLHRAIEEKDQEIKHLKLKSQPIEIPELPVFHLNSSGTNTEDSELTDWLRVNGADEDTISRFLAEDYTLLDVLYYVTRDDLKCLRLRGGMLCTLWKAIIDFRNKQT
Experiment: yeast two-hybrid (Brent's system), ASK1-KR as bait, fetal human brain expression library as prey; positive clone
Protocol: To identify the ASK1-binding protein, screening was conducted by the yeast two-hybrid method using Brent's system [Zervos et al., Cell, Vol. 72, p. 223-232, 1993; Gyuris et al., Cell, Vol. 75, p. 791-803, 1993] with ASK1-KR, prepared by replacing lysine (K) at the ATP-binding site (position 709) in the kinase domain of human ASK1 with arginine (R), as a bait and an expression library of fetal human brain origin as a prey. As a result, about 1200 positive clones were obtained. Database search of one of them based on its base sequence identified it as a portion of the protein coding region of the gene designated as “PGR1” (a portion corresponding to amino acid positions 35 to 127). […] Since this protein was identified as an ASK1-binding protein, it was designated as ASK1 binding protein 1 (ABP1).

B1: ABP1 (PGR1) fragment, amino acid positions 35 to 127, positive clone of the two-hybrid screen (other)
chain: MREDIASLTREHGRAYLRNRSKLWEMDNMLIQIKTQVEASEESALNHLQNPGDAAEGRAAKRCEKAEEKAKEIAKMAEMLVELVRRIEKSESS
notes: Prey from an expression library of fetal human brain origin; also called PGR1 (a portion corresponding to amino acid positions 35 to 127); prey clone
binding result: binds
